{
  "source": "paper PMC10901774",
  "about": "“Mirror-image ligand discovery enabled by single-shot fast-flow synthesis of D-proteins” (Nature Communications, 2024)",
  "molecules": {"B1": {"name": "Recombinant ERG: ERG (115-208) recombinantly expressed in E. coli (protein, UniProt P11308 115-208, looked up, fragment)", "chain": "PPNMTTNERRVIVPADPTLWSTDHVRQWLEWAVKEYGLPDVNILLFQNIDGKELCKMTKDDFQRLTPSYNADILLSHLHYLRETPLPHLTSDDV"}},
  "details": "pH 7.4",
  "protocol": "For protein targets with no known binding partners and no available activity assays (ERG and IRAK2), we recorded circular dichroism (CD) spectra and compared them to recombinantly derived material.\nERG and IRAK2 Circular Dichroism\nBefore analysis, all proteins were exchanged into CD buffer (10 mM KP i, 5% glycerol v/v, pH 7.4).\nFast protein liquid chromatography (FPLC) purification was performed using GE Life Sciences\ncolumns on an ÄKTA Pure FPLC system. The ÄKTA Pure, FPLC columns, and all buffers were\nstored and subsequently used in a cold room maintained at 4 °C. HiTrap™ Desalting 5 mL: Before\ndesalting, the column was equilibrated with 20 mL of the CD buffer at 2 mL/min or until the\nconductance reading from the ÄKTA Pure stabilizes, whichever is the greater volume. Up to 1.5\nmL of sample was loaded into the column using a syringe fitted with a compatible male-end screw\ntip, and then the loaded column was attached to the ÄKTA Pure. An isocratic flow of buffer (2 CV) […]\nprotein solution was determined with Method 1.6.1. […]\nmg/mL with additions of CD buffer. All CD spectra were recorded on an AVIV Model 420 Circular […]\nBefore all readings, cuvettes were cleaned with Hellmanex™ 3 concentrate according to\nmanufacturer directions. Far circular dichroism spectra were recorded as the average of three […]\nwith 2 nm bandwidth and 8 second averaging time. Spectra were recorded between 0 and 110 […]",
  "data": [
    {"molecule": "B1", "values": [
      {"measurement": "TM (melting temperature), ERG", "result": "71.7±0.8 ºC"}
    ]}
  ]
}
